Source: patent US20150376261A1

How the values were obtained:
Test in all cases: cell-based or functional assay
[1] = molecular target: hβ1AR (human) (UniProt P08588)
[2] = molecular target: β2AR365N (human) (UniProt P07550)
[3] = molecular target: M2Δi3R (human) (UniProt P08172)
Chain of M2Δi3R (human) (P08172 other isoform, or with tags, fused parts or gaps mutant limits assumed): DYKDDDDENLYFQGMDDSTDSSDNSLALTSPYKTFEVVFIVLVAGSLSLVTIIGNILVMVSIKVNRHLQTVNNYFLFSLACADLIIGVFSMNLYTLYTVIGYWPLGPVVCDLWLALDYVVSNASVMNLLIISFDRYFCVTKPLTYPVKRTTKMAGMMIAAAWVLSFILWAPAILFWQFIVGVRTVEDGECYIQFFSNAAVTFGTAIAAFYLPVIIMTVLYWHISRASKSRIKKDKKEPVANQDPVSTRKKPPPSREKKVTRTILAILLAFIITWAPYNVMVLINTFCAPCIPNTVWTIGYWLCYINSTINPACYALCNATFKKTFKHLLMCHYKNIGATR

Chain of hβ1AR (human) (P08588 other isoform, or with tags, fused parts or gaps): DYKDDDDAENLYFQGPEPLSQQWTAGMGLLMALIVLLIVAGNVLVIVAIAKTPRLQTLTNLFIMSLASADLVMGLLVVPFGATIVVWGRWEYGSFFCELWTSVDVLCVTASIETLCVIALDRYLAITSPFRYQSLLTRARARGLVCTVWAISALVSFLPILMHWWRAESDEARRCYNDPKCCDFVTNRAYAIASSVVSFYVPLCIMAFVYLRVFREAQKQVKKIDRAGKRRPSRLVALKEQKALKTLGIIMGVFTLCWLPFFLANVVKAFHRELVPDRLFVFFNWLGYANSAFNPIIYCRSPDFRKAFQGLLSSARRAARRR

B1: Nb80 (VHH)
VHH: QVQLQESGGGLVQAGGSLRLSCAASGSIFSINTMGWYRQAPGKQRELVAAIHSGGSTNYANSVKGRFTISRDNAANTVYLQMNSLKPEDTAVYYCNVKDYGAVLYEYDYWGQGTQVTVSS
B1 was tested, and the IC50 ratio, ICI-118,551: IC50 hβ1AR-Nb69 / IC50high hβ1AR-Nb80 fusion [1] was 0.077, the IC50 ratio, alprenolol: IC50 hβ1AR-Nb69 / IC50high hβ1AR-Nb80 fusion [1] was 0.988 and the IC50 ratio, epinephrine: IC50 hβ1AR-Nb69 / IC50high hβ1AR-Nb80 fusion ([3H]-DHA competition, Sf9 membranes) [1] was 68.7. For the same binder, the IC50 ratio, ICI-118,551: β2AR365N-Nb69 mock fusion / β2AR365N-Nb80 fusion [2] was 0.023, the IC50 ratio, alprenolol: β2AR365N-Nb69 mock fusion / β2AR365N-Nb80 fusion [2] was 4 and the IC50 ratio, carvedilol: non-fused β2AR365N / β2AR365N-Nb80 fusion [2] was 0.22. For the same binder, the IC50 ratio, carvedilol: β2AR365N-Nb69 mock fusion / β2AR365N-Nb80 fusion [2] was 0.4, the IC50 ratio, epinephrine: non-fused β2AR365N / β2AR365N-Nb80 fusion [2] was 1380 and the IC50 ratio, epinephrine: β2AR365N-Nb69 mock fusion / β2AR365N-Nb80 fusion ([3H]-DHA competition; Nb fused to the receptor) [2] was 2070. It also gave an IC50 ratio, isoproterenol: β2AR365N-Nb69 mock fusion / β2AR365N-Nb80 fusion [2] of 670, an IC50 ratio, salbutamol: β2AR365N-Nb69 mock fusion / β2AR365N-Nb80 fusion [2] of 373 and an apparent potency shift, compound 9: IC50 β2AR365N-Nb69 / IC50 β2AR365N-Nb80 fusion [2] of 71. The apparent potency shift, compound 10: IC50 β2AR365N-Nb69 / IC50 β2AR365N-Nb80 fusion [2] was 94, the apparent potency shift, epinephrine: Nb80 fusion compared to Nb69 fusion (Example 19 experiment) [2] was 855 and the apparent potency shift, fragment CC56213: IC50 β2AR365N-Nb69 / IC50 β2AR365N-Nb80 fusion [2] was 22. The apparent potency shift, isoprotenerol: Nb80 fusion compared to Nb69 fusion (Example 19 experiment) [2] was 155, the concentration of exogenous Nb80 at which the epinephrine IC50 of non-fused β2AR365N equals that of the fusion [2] was 5 µM and the effective intramolecular concentration of Nb80 in the β2AR365N-Nb80 fusion [2] was over 500 nM. For the same binder, the epinephrine potency shift: IC50 of the mock fusion / IC50 of non-fused β2AR365N with 500 nM exogenous Nb80 [2] was 87 fold, the epinephrine potency shift: IC50 of the mock fusion / IC50 of the β2AR365N-Nb80 fusion (Nb80 fused to the receptor) [2] was 534 fold and the molar excess of exogenous Nb80 over β2AR needed to match the fusion [2] was 12500 fold.

B2: Nb9-1 (VHH)
VHH: QVQLQESGGGLVQAGGSLRLSCAASGHTFSSARMYWVRQAPGKEREFVAAISRSGFTYSADSVKGRFTISRDIANNTVYLQMNSLQPEDTAIYTCYAAYLDEFYNDYTHYWGLGTQVTVSS
B2 was tested, and the IC50 ratio, carbachol: IC50 M2Δi3R / IC50high M2Δi3R-Nb9-1 fusion ([3H]-NMS competition, Sf9 membranes) [3] was 67.2 and the IC50 ratio, oxotremorine M: IC50 M2Δi3R / IC50high M2Δi3R-Nb9-1 fusion [3] was 316.

B3: Nb71 (VHH)
VHH: QVQLQESGGGLVQPGGSLRLSCAASGFAFSSYELRWYRQAPGKQHELVAGITTGGNTYYADSVKGRFTISRDNAKNTVYLQMSNLRPEDTAVYACNANWDLLSDYWGQGTQVTVSS
B3 was tested, and the IC50 ratio, ICI-118,551: β2AR365N-Nb69 mock fusion / β2AR365N-Nb71 fusion [2] was 0.01, the IC50 ratio, alprenolol: β2AR365N-Nb69 mock fusion / β2AR365N-Nb71 fusion [2] was 1.5 and the IC50 ratio, carvedilol: β2AR365N-Nb69 mock fusion / β2AR365N-Nb71 fusion [2] was 0.6. The IC50 ratio, epinephrine: β2AR365N-Nb69 mock fusion / β2AR365N-Nb71 fusion [2] was 2030, the IC50 ratio, isoproterenol: β2AR365N-Nb69 mock fusion / β2AR365N-Nb71 fusion [2] was 80 and the IC50 ratio, salbutamol: β2AR365N-Nb69 mock fusion / β2AR365N-Nb71 fusion [2] was 454.
